What was measured:
Type in all cases: cell-based
OVCAR3 = assay: IFN-γ release, co-culture with OVCAR3; settings: co-cultured with OVCAR3
Excerpt: (§1) SSX-2 TCR-transduced PBLs were co-cultured with various tumor cell lines. […] FIGS. 4A and 4B, FIG. 11, and Tables 3 and 4 show additional results of PBLs from human donors that were transduced with the SSX-2 TCR of Example 2 when these PBLs were co-cultured with various tumor cells.

SKMEL 23 = assay: IFN-γ release, co-culture with SKMEL 23; settings: co-cultured with SKMEL 23
Excerpt: as §1

T331A mel = assay: IFN-γ release, co-culture with T331A; settings: for IFN-γ: co-cultured with T331A; for interferon-γ levels: co-cultured with T331A mel
Excerpt: (§2) SSX-2 TCR-transduced PBLs were co-cultured with various tumor cell lines. […] FIGS. 4A and 4B, FIG. 11, and Tables 3 and 4 show additional results of PBLs from human donors that were transduced with the SSX-2 TCR of Example 2 when these PBLs were co-cultured with various tumor cells. PBLs that were untransduced (UT) or transduced with a vector comprising SEQ ID NO: 27 (SSX-2 TCR), SEQ ID NO: 29 (codon-optimized SSX-2 TCR), or SEQ ID NO: 30 (codon-optimized SSX-2 TCR including mouse constant region) were co-cultured with various tumor cell lines. Tables 5 and 6 show the resulting interferon-γ levels (pg/ml) measured with respect to PBL from two different donors.

COS-A2 SSX2 = assay: IFN-γ release, co-culture with COS-A2 SSX2; settings: co-cultured with COS-A2 SSX2
Excerpt: as §2

624 mel = assay: IFN-γ release, co-culture with 624 melanoma; settings: co-cultured with 624 (Melanoma)
Excerpt: as §2

938-A2 mel = assay: IFN-γ release, co-culture with 938-A2 melanoma; settings: Table 3; co-cultured with 938-A2 (Melanoma)
Excerpt: as §2

938 mel = assay: IFN-γ release, co-culture with 938; settings: for IFN-γ: co-cultured with 938; for interferon-γ levels: co-cultured with 938 mel
Excerpt: as §2

U251 Glioma = assay: IFN-γ release, co-culture with U251 glioma; settings: co-cultured with U251 (Glioma)
Excerpt: as §2

T567A = assay: IFN-γ release, co-culture with T567A melanoma; settings: co-cultured with T567A (Melanoma)
Excerpt: as §1

SSX-1 to SSX-10 peptides = assay: Co-culture with T2 cells pulsed with SSX family peptides; settings: peptide-pulsed T2 cells; FIG. 5
Description: The peptides used for pulsing were: SSX-1 (KYSEKISYV, SEQ ID NO: 32) (-♦-); SSX-2 (KASEKIFYV, SEQ ID NO: 2) (▪); SSX-3 (KVSEKIVYV, SEQ ID NO: 8) (▪); SSX-4 (KSSEKIVYV, SEQ ID NO: 9) (X); SSX-5 (KASEKIIYV, SEQ ID NO: 10) ( ? ); SSX-6 (KFSEKISCV, SEQ ID NO: 33) (•); SSX-7 (KSLEKISYV, SEQ ID NO: 34) (|); SSX-8 KYSEKISYV, SEQ ID NO: 32) (-); SSX-9 (KSSEKIIYV, SEQ ID NO: 11) (—); and SSX-10 (KASEKILYV, SEQ ID NO: 12) (--♦--).
Co-culture assays were performed with PBLs transduced with the SSX-2 TCR of Example 2 and peptide-pulsed T2 cells.

B1: SSX2-TCR-WT: HLA-A2 restricted anti-SSX-2 TCR alpha and beta chains encoded by SEQ ID NO: 27, tested as transduced human PBLs (protein)
chain: MSLSSLLKVVTASLWLGPGIAQKITQTQPGMFVQEKEAVTLDCTYDTSDPSYGLFWYKQPSSGEMIFLIYQGSYDQQNATEGRYSLNFQKARKSANLVISASQLGDSAMYFCAMTSGFGNEKLTFGTGTRLTIIPNIQNPDPAVYQLRDSKSSDKSVCLFTDFDSQTNVSQSKDSDVYITDKTVLDMRSMDFKSNSAVAWSNKSDFACANAFNNSIIPEDTFFPSPESSCDVKLVEKSFETDTNLNFQNLSVIGFRILLLKVAGFNLLMTLRLWSSRAKRSGSGATNFSLLKQAGDVEENPGPMGPGLLHWMALCLLGTGHGDAMVIQNPRYQVTQFGKPVTLSCSQTLNHNVMYWYQQKSSQAPKLLFHYYDKDFNNEADTPDNFQSRRPNTSFCFLDIRSPGLGDAAMYLCATSRGQGGQPQHFGDGTRLSILEDLNKVFPPEVAVFEPSEAEISHTQKATLVCLATGFFPDHVELSWWVNGKEVHSGVSTDPQPLKEQPALNDSRYCLSSRLRVSATFWQNPRNHFRCQVQFYGLSENDEWTQDRAKPVTQIVSAEAWGRADCGFTSVSYQQGVLSATILYEILLGKATLYAVLVSALVLMAMVKRKDF
OVCAR3; Table 3
  IFN-γ: 0 pg/mL
OVCAR3; Table 4
  IFN-γ: 21 pg/mL
SKMEL 23; Table 3
  IFN-γ: 0 pg/mL
SKMEL 23; Table 4
  IFN-γ: 0 pg/mL
T331A mel; Table 3
  IFN-γ: 0 pg/mL
T331A mel; Table 4
  IFN-γ: 42 pg/mL
T331A mel; Table 5 donor
  interferon-γ levels: 30 pg/mL
T331A mel; Table 6 donor
  interferon-γ levels: 58 pg/mL
COS-A2 SSX2; Table 3
  IFN-γ: 36070 pg/mL
COS-A2 SSX2; Table 4
  IFN-γ: 56820 pg/mL
624 mel; Table 3
  IFN-γ: 26515 pg/mL
624 mel; Table 4
  IFN-γ: 21730 pg/mL
938-A2 mel
  IFN-γ: 19320 pg/mL
938 mel; Table 3
  IFN-γ: 0 pg/mL
938 mel; Table 4
  IFN-γ: 0 pg/mL
938 mel; Table 5 donor
  interferon-γ levels: 1239 pg/mL
938 mel; Table 6 donor
  interferon-γ levels: 1451 pg/mL
U251 Glioma; Table 3
  IFN-γ: 9770 pg/mL
U251 Glioma; Table 4
  IFN-γ: 12025 pg/mL
T567A; Table 3
  IFN-γ: 10280 pg/mL
T567A; Table 4
  IFN-γ: 13245 pg/mL
SSX-1 to SSX-10 peptides
  reactivity with SSX family peptides: most reactive with the peptide of SSX-2 and also recognizes the peptides of SSX-3, -4, -5, -9, and -10 over the other SSX peptides
